Experimental data as given in PMC10246534 (Nature Communications, 2023).

B1: casirivimab (antibody, V domains shown)
VH: QVQLVESGGGLVKPGGSLRLSCAASGFTFSDYYMSWIRQAPGKGLEWVSYITYSGSTIYYADSVKGRFTISRDNAKSSLYLQMNSLRAEDTAVYYCARDRGTTMVPFDYWGQGTLVTVSS
VL: DIQMTQSPSSLSASVGDRVTITCQASQDITNYLNWYQQKPGKAPKLLIYAASNLETGVPSRFSGSGSGTDFTFTISGLQPEDIATYYCQQYDNLPLTFGGGTKVEIK
notes: source: Regeneron
B2: imdevimab (antibody, V domains shown)
VH: QVQLVESGGGVVQPGRSLRLSCAASGFTFSNYAMYWVRQAPGKGLEWVAVISYDGSNKYYADSVKGRFTISRDNSKNTLYLQMNSLRTEDTAVYYCASGSDYGDYLLVYWGQGTLVTVSS
VL: QSALTQPASVSGSPGQSITISCTGTSSDVGGYNYVSWYQQHPGKAPKLMIYDVSKRPSGVSNRFSGSKSGNTASLTISGLQSEDEADYYCNSLTSISTWVFGGGTKLTVL
notes: source: Regeneron

Target: Delta RBD WT (SARS-CoV-2, Delta variant (B.1.617.2), L452R)
Test: SPR; Biacore T200; […]; HBS-EP, 25 °C; 1:1 binding model
Conditions: both partners purified

Row | Binder | Kd [nM]
1 | B1 | 0.36
2 | B2 | 9.4
